According to US20110183888A1:
Square brackets hold non-standard residues; d marks the D form. Ends that are not written are not given here.

B1: D-TAT-IB1(s) (peptide)
peptide: [dD][dQ][dS][dR][dP][dV][dQ][dP][dF][dL][dN][dL][dT][dT][dP][dR][dK][dP][dR][dP][dP][dR][dR][dR][dQ][dR][dR][dK][dK][dR]G
B2: L-TAT-IB1(s) (peptide)
peptide: GRKKRRQRRRPPRPKRPTTLNLFPQVPRSQD

What was measured:
Test in all cases: cell-based or functional assay
JNK1, P45983 = biological target: JNK1, P45983
JNK2, P45984 = biological target: JNK2, P45984
JNK3, P53779 = biological target: JNK3, P53779
Chain of JNK3, P53779 (P53779 whole entry): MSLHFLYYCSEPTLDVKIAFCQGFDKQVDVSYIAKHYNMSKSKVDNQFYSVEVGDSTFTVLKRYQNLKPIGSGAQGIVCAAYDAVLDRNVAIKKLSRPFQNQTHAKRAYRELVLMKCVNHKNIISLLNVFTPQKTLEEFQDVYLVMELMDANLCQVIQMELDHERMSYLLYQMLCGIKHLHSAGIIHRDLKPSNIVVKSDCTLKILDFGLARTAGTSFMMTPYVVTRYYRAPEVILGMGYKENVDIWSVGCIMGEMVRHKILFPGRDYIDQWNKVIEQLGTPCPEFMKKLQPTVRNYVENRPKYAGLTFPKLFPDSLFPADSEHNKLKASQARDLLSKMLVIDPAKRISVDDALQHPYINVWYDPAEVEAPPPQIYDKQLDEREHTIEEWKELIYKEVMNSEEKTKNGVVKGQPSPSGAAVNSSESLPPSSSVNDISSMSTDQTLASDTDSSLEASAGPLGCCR

Chain of JNK1, P45983 (P45983 whole entry, the tested form may be a part): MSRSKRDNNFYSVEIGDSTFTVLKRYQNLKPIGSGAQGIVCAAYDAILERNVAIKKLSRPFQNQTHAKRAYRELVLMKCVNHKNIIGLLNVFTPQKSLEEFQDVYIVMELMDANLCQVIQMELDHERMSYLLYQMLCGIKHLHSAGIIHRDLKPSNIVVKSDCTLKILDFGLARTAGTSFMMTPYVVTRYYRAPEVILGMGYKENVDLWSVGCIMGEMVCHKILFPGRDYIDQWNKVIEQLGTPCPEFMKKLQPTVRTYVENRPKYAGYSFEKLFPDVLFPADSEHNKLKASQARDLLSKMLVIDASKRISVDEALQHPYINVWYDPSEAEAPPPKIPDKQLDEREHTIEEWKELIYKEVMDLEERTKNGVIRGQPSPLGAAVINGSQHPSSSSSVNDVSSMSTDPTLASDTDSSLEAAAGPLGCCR

| Binder | inhibition of GST-Jun (aa 1-73) phosphorylation by recombinant JNK; fold less efficient than L-TAT-IB1(s) (JNK1, P45983) [fold] | inhibition of GST-Jun (aa 1-73) phosphorylation by recombinant JNK; fold less efficient than L-TAT-IB1(s) (JNK2, P45984) [fold] | inhibition of GST-Jun (aa 1-73) phosphorylation by recombinant JNK; fold less efficient than L-TAT-IB1(s) (JNK3, P53779) [fold] | inhibition of c-Jun, ATF2 and Elk1 phosphorylation by JNKs (solid phase kinase assay, 33P, SDS-PAGE) (JNK1, P45983) [µM] | inhibition of c-Jun, ATF2 and Elk1 phosphorylation by JNKs (solid phase kinase assay, 33P, SDS-PAGE) (JNK2, P45984) [µM] | inhibition of c-Jun, ATF2 and Elk1 phosphorylation by JNKs (solid phase kinase assay, 33P, SDS-PAGE) (JNK3, P53779) [µM] |
| --- | --- | --- | --- | --- | --- | --- |
| B1 | 10 to 20 | 10 to 20 | 10 to 20 |  |  |  |
| B2 |  |  |  | 2.5 | 2.5 | 2.5 |
